Source: patent US11813311B2, “Treatment and prevention of metabolic diseases” (Singapore Health Services PTE LTD., priority 2019, dated 2023)

B1: X209: mouse anti-mouse IL-11Rα IgG (IgG1κ), neutralising; VH SEQ ID NO:24, VL SEQ ID NO:25 (antibody, V domains shown)
VH: QVQLQQPGAELVRPGSSVKLSCKASGYTFTNYWMHWLKQRPVQGLEWIGNIGPSDSKTHYNQKFKDKATLTVDKSSSTAYMQLNSLTSEDSAVYYCARGDYVLFTYWGQGTLVTVSA
VL: DIVLTQSPATLSLSPGERATLSCRASQSISNNLHWYQQKSHEAPRLLIKYASQSISGIPARFSGSGSGTDFTLSFSSLETEDFAVYFCQQSYSWPLTFGQGTKLEIK
modifications: Enx209 VH; Enx209 VL
B2: X203: mouse anti-mouse IL-11 IgG (IgG1κ), neutralising; VH SEQ ID NO:22, VL SEQ ID NO:23 (antibody, V domains shown)
VH: EVQLQQSGPELVKPGASVKIPCKASGYTFTDYNMDWVKQSHGKSLEWIGDINPHNGGPIYNQKFTGKATLTVDKSSSTAYMELRSLTSEDTAVYYCARGELGHWYFDVWGTGTTVTVSS
VL: DIVLTQSPASLAVSLGQRATISCRASKSVSTSGYSYIHWYQQKPGQPPKLLIYLASNLDSGVPARFSGSGSGTDFTLNIHPVEEEDAATYYCQHSRDLPPTFGGGTKLEIK
modifications: Enx203 VH; Enx203 VL

Tests used:
PSCs = test: Pancreatic stellate cell (PSC) activation in vitro; format: cell-based; settings: 24 hours
Description: FIGS. 48A and 48B. Box plots and images showing activation of pancreatic stellate cells (PSCs) to a αSMA-positive, collagen-expressing fibrogenic phenotype. (A) Quantification of high-content imaging assays for the percentage of ACTA2-positive cells and collagen I intensity/area following in vitro stimulation of PSCs for 24 hours with the indicated factors, in the presence or absence of neutralising anti-IL-11 RA antibody or IgG isotype control antibody. (B) Representative images for high-content imaging analysis of collagen I intensity/area following in vitro stimulation of PSCs for 24 hours with the indicated factors, in the presence of neutralising anti-IL-11 RA antibody or IgG isotype control antibody.

mouse Il11ra1 = molecular target: T1, mouse Il11ra1 (Mus musculus, UniProt Q64385); test: Binding of X209 to mouse Il11ra1 (Octet); settings: Octet system
T1 sequence (Q64385 24-432): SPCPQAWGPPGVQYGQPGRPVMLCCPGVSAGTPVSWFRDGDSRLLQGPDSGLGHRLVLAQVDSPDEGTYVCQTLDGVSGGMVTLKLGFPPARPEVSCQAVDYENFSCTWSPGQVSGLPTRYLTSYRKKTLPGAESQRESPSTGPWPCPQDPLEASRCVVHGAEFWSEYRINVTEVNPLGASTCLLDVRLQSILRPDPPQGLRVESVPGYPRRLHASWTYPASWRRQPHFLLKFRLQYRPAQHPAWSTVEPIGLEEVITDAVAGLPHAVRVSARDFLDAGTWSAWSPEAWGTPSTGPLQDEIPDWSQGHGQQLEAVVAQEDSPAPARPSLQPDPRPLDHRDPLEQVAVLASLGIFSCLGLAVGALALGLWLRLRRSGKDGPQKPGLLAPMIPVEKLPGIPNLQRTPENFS
Description: Binding of X209 to human IL11RA was measured on Biacore T200 (GE Healthcare). X209 was immobilized onto an anti-mouse capture chip. Interaction assays were performed with HEPES-buffered saline pH 7.4 containing 0.005% P20 and 0.5% BSA. A concentration range (1.56 nM to 100 nM) of the analyte (human IL11 RA) was injected over X209 and reference surfaces at a flow rate of 40 μl min^−1. Binding to mouse Il11ra1 was confirmed on Octet system (ForteBio) using a similar strategy. All sensograms were aligned and double-referenced^4. Affinity and kinetic constants were determined by fitting the corrected sensorgrams with 1:1 Langmuir model. The equilibrium binding constant KD was determined by the ratio of kd/ka.

ERK = ERK activation in HSCs (Western blot); format: cell-based, human; settings: HSCs, antibody 2 μg/ml
Description: Western blots were carried out on total protein extracts from HSCs and liver tissues. Both cells and frozen tissues were homogenized in radioimmunoprecipitation assay (RIPA) buffer containing protease and phosphatase inhibitors (Thermo Scientifics), followed by centrifugation to clear the lysate. Protein concentrations were determined by Bradford assay (Bio-Rad). Equal amount of protein lysates were separated by SDS-PAGE, transferred to PVDF membrane, and subjected to immunoblot analysis for the indicated primary antibodies. Proteins were visualized using the ECL detection system (Pierce) with the appropriate secondary antibodies.

mice with PDL = test: Pancreatic duct ligation (PDL) model of pancreatic injury; format: in vivo, mouse; settings: 14 days
Source text: FIGS. 50A to 50C. Schematic, box plot and images relating to the effect of antagonism of IL-11 mediated signalling in a pancreatic duct ligation (PDL) model of pancreatic injury. (A) Schematic representation of experiment in which pancreatic injury is induced by PDL, and wherein mice are subsequently treated with neutralising anti-IL-11 RA antibody or IgG isotype control antibody. (B) Ligated lobe weight for mice treated with neutralising anti-IL-11 RA antibody or IgG isotype control antibody at 14 days. (C) Representative images of Masson's Trichrome staining of pancreatic tissue from mice treated with neutralising anti-IL-11 RA antibody or IgG isotype control antibody at 14 days.

HSCs = test: HSC-to-myofibroblast transformation (ACTA2/Collagen I, Operetta); format: cell-based, human; settings: antibody 2 μg/ml, 24 h
Description: Cells (atrial fibroblasts, HSCs and hepatocytes) were grown and maintained at 37° C. and 5% CO2. The growth medium was renewed every 2-3 days and cells were passaged at 80-90% confluence using standard trypsinization techniques. All the experiments were carried out at low cell passage (P1-P2). Cells were serum-starved for 16 h prior to stimulations. Stimulated cells were compared to unstimulated cells that have been grown for the same duration under the same conditions (serum-free media), but without the stimuli.
HSCs (5300, ScienCell) were cultured in stellate cells complete media (5301, ScienCell) on poly-L-lysine-coated plates (2 μg/cm2, 0403, ScienCell).
The Operetta assay was performed mostly as described previously 11 with minor modifications described here: HSCs or hepatocytes were seeded in 96-well black CellCarrier plates (PerkinElmer) at a density of 5×10^3 cells per well. Following experimental conditions, cells were fixed in 4% paraformaldehyde (PFA, 28908, Thermo Fisher), permeabilized with 0.1% Triton X-100 (Sigma) and non-specific sites were blocked with 0.5% BSA and 0.1% Tween-20 in PBS. Cells were incubated overnight (4° C.) with primary antibodies (1:500), followed by incubation with the appropriate AlexaFluor 488 secondary antibodies (1:1000). Rhodamine Phalloidin staining (1:1000, R415, Thermo Fisher) was performed by overnight incubation (4° C.). […]

[1] = test system: mice with UUO-induced kidney injury; test: Weight loss after UUO-induced acute kidney injury; format: in vivo, mouse; settings: 20 mg/kg 2×/week from day 4 post-UUO
Description: In further experiments, mice were subjected to unilateral ureter obstruction (UUO)-induced acute kidney injury. UUO surgeries were carried out on 12-week old mice. Briefly, mice were anesthetized by IP injection of ketamine (100 mg/kg)/xylazine (10 mg/kg) and full depth of anaesthesia was accessed with the pedal reflex. Mice were then shaved on the left side of the abdomen. A vertical incision was made through the skin with a scalpel, a second incision was made through the peritoneum to reveal the kidney. Using forceps, the kidney was brought to the surface and the ureter was tied with surgical silk, twice, below the kidney. The ligated kidney was placed gently back into its correct anatomical position and sterile saline was added to replenish loss of fluid. The incisions were then sutured. Animals were post-operatively treated with antibiotic enrofloxacin (15 mg/kg, SC) and analgesic buprenorphine (0.1 mg/kg, SC) for three consecutive days. Mice were sacrificed 10 days post-ligation. Mice were intraperitoneally injected with 20 mg/kg (2×/week) of anti-IL-11 antibody or identical concentration of IgG isotype control from day 4 post-surgery until the mice were sacrificed.

Molecule | PSC activation irrespective of the stimulus (TGFβ1, IL-11, bFGF, CTGF, PDGF or ET-1) (PSCs) | Binding to mouse Il11ra1 (mouse Il11ra1) | ERK phosphorylation downstream of all factors, including IL-11 (ERK) | pancreatic fibrosis (mice with PDL) | reduction in pancreatic tissue associated with PDL (mice with PDL) | HSC transformation downstream of all factors, including IL-11 (HSCs) | regain of body weight [1] | time to return to normal weight [1]
B1 | inhibited | confirmed | abolished | reduced pancreatic fibrosis | inhibited | abolished | – | –
B2 | – | – | – | – | – | – | regained their body weight more quickly than those receiving IgG control | ≤ 4 days
